# Key:
# HLA-B*15:02 = experiment: IEDB peptide-MHC binding, purified MHC/competitive/fluorescence; filed as Kd, often an IC50 or EC50 that approximates it; ≥ and ≤ were set here for values at or beyond the usual limits of such assays
# HLA-A*69:01 [1] = experiment: IEDB peptide-MHC binding, purified MHC/direct/fluorescence; filed as Kd, often an IC50 or EC50 that approximates it; ≥ and ≤ were set here for values at or beyond the usual limits of such assays
# HLA-A*01:01 = experiment: as above; conditions: source organism: Pseudomonas aeruginosa
# HLA-A*03:01 = experiment: as above
# HLA-B*27:05 [2] = experiment: as above; conditions: source organism: Pseudomonas aeruginosa
# HLA-B*40:01 = experiment: as above
# HLA-B*07:02 = experiment: as above
# HLA-B*58:01 [3] = experiment: as above; conditions: source organism: Pseudomonas aeruginosa
# HLA-A*26:01 [4] = experiment: as above
# HLA-A*02:01 = experiment: as above
# HLA-B*08:01 = experiment: as above; conditions: source organism: Pseudomonas aeruginosa
# HLA-A*11:01 = experiment: as above; conditions: source organism: Pseudomonas aeruginosa
# HLA-B*15:01 = experiment: as above
# HLA-A*31:01 = experiment: as above; conditions: source organism: Pseudomonas aeruginosa
# HLA-B*46:01 [5] = experiment: as above
# HLA-A*24:03 = experiment: as above
# HLA-A*02:12 = experiment: as above
# HLA-A*68:02 = experiment: as above
# HLA-B*39:01 = experiment: as above
# HLA-A*29:02 = experiment: as above; conditions: source organism: Rickettsia sibirica 246
# HLA-B*35:01 = experiment: as above
# HLA-B*51:01 [6] = experiment: as above
# HLA-A*02:16 = experiment: as above
# HLA-B*57:01 [7] = experiment: as above
# HLA-A*02:03 = experiment: as above
# HLA-B*27:03 = experiment: as above
# HLA-A*02:11 = experiment: as above
# HLA-B*18:01 = experiment: as above
# HLA-B*15:17 = experiment: as above; conditions: source organism: Rickettsia sibirica 246
# HLA-A*02:19 = experiment: as above
# HLA-B*27:05 [8] = experiment: IEDB peptide-MHC binding, purified MHC/competitive/fluorescence; filed as Kd, often an IC50 or EC50 that approximates it; ≥ and ≤ were set here for values at or beyond the usual limits of such assays
# HLA-B*58:01 [9] = experiment: as above; conditions: source organism: Bacillus anthracis str. A0488
# HLA-C*03:03 = experiment: IEDB peptide-MHC binding, purified MHC/direct/fluorescence; filed as Kd, often an IC50 or EC50 that approximates it; ≥ and ≤ were set here for values at or beyond the usual limits of such assays; conditions: source organism: Bacillus anthracis str. A0488
# HLA-C*14:02 = experiment: as above; conditions: source organism: Yersinia pestis CO92
# HLA-A*69:01 [10] = experiment: IEDB peptide-MHC binding, purified MHC/competitive/fluorescence; filed as Kd, often an IC50 or EC50 that approximates it; ≥ and ≤ were set here for values at or beyond the usual limits of such assays; conditions: source organism: Zaire ebolavirus
# HLA-B*51:01 [11] = experiment: as above; conditions: source organism: Zaire ebolavirus
# HLA-B*57:01 [12] = experiment: as above; conditions: source organism: Zaire ebolavirus
# HLA-A*26:01 [13] = experiment: as above; conditions: source organism: Zaire ebolavirus
# HLA-C*12:03 = experiment: IEDB peptide-MHC binding, purified MHC/direct/fluorescence; filed as Kd, often an IC50 or EC50 that approximates it; ≥ and ≤ were set here for values at or beyond the usual limits of such assays; conditions: source organism: Squirrelpox virus
# HLA-B*46:01 [14] = experiment: IEDB peptide-MHC binding, purified MHC/competitive/fluorescence; filed as Kd, often an IC50 or EC50 that approximates it; ≥ and ≤ were set here for values at or beyond the usual limits of such assays; conditions: source organism: Shigella sonnei Ss046
# [15] = source organism: Pseudomonas aeruginosa
# [16] = source organism: Rickettsia sibirica 246
# [17] = source organism: Zaire ebolavirus
# [18] = source organism: Giardia lamblia ATCC 50803
# [19] = source organism: Squirrelpox virus
# [20] = source organism: Escherichia coli O157:H7 str. EC4486
sequence,measurement,setting,value
ALEPGFKDY,Kd,HLA-B*15:02; source organism: Pseudomonas aeruginosa PACS2,0.814 µM
same,Kd,HLA-A*69:01 [1]; [15],≥ 20 µM
same,Kd,HLA-A*01:01,2 µM
same,Kd,HLA-A*03:01; [15],≥ 20 µM
same,Kd,HLA-B*27:05 [2],≥ 20 µM
same,Kd,HLA-B*40:01; [15],≥ 20 µM
same,Kd,HLA-B*07:02; [15],≥ 20 µM
same,Kd,HLA-B*58:01 [3],≥ 20 µM
same,Kd,HLA-A*26:01 [4]; [15],≥ 20 µM
same,Kd,HLA-A*02:01; [15],≥ 20 µM
same,Kd,HLA-B*08:01,≥ 20 µM
same,Kd,HLA-A*11:01,≥ 20 µM
same,Kd,HLA-B*15:01; [15],0.482 µM
same,Kd,HLA-A*31:01,≥ 20 µM
EFVSANLAM,Kd,HLA-A*69:01 [1]; [16],≥ 20 µM
same,Kd,HLA-B*46:01 [5]; [16],≥ 20 µM
same,Kd,HLA-A*24:03; [16],≥ 20 µM
same,Kd,HLA-A*02:12; [16],≥ 20 µM
same,Kd,HLA-A*03:01; [16],≥ 20 µM
same,Kd,HLA-A*68:02; [16],≥ 20 µM
same,Kd,HLA-B*39:01; [16],≥ 20 µM
same,Kd,HLA-A*29:02,≥ 20 µM
same,Kd,HLA-B*35:01; [16],0.052 µM
same,Kd,HLA-B*51:01 [6]; [16],≥ 20 µM
same,Kd,HLA-A*02:16; [16],≥ 20 µM
same,Kd,HLA-B*57:01 [7]; [16],≥ 20 µM
same,Kd,HLA-A*02:03; [16],≥ 20 µM
same,Kd,HLA-B*07:02; [16],≥ 20 µM
same,Kd,HLA-B*27:03; [16],≥ 20 µM
same,Kd,HLA-A*02:11; [16],≥ 20 µM
same,Kd,HLA-A*26:01 [4]; [16],≥ 20 µM
same,Kd,HLA-A*02:01; [16],≥ 20 µM
same,Kd,HLA-B*18:01; [16],≥ 20 µM
same,Kd,HLA-B*15:17,≥ 20 µM
same,Kd,HLA-A*02:19; [16],≥ 20 µM
same,Kd,HLA-B*15:01; [16],≥ 20 µM
ELNASFIVF,Kd,HLA-B*15:02; source organism: Rickettsia massiliae MTU5,0.182 µM
GRITVSTKR,Kd,HLA-B*27:05 [8]; source organism: Influenza A virus (A/CHU/2-524/2005(H3N2)),0.315 µM
ITLPISASL,Kd,HLA-B*58:01 [9],0.114 µM
same,Kd,HLA-C*03:03,≤ 0.001 µM
KIMQVDRPM,Kd,HLA-B*15:02; source organism: Yersinia pestis CO92,4 µM
same,Kd,HLA-C*14:02,0.102 µM
KQIPIWLPL,Kd,HLA-A*69:01 [10],≥ 20 µM
same,Kd,HLA-B*27:05 [8]; [17],0.316 µM
same,Kd,HLA-B*51:01 [11],≥ 20 µM
same,Kd,HLA-B*57:01 [12],≥ 20 µM
same,Kd,HLA-A*26:01 [13],≥ 20 µM
same,Kd,HLA-A*03:01; [17],≥ 20 µM
same,Kd,HLA-A*68:02; [17],≥ 20 µM
same,Kd,HLA-B*40:01; source organism: Ebola virus - Gabon (1994-1997),0.0009 µM
same,Kd,HLA-A*02:19; [17],≥ 20 µM
LTIVFVPEV,Kd,HLA-B*46:01 [5]; [18],≥ 20 µM
same,Kd,HLA-A*03:01; [18],≥ 20 µM
same,Kd,HLA-B*39:01; [18],≥ 20 µM
same,Kd,HLA-B*27:03; [18],≥ 20 µM
same,Kd,HLA-A*26:01 [4]; [18],≥ 20 µM
same,Kd,HLA-A*02:01; [18],0.004 µM
same,Kd,HLA-B*18:01; [18],≥ 20 µM
same,Kd,HLA-B*15:01; [18],≥ 20 µM
MACHRVLTY,Kd,HLA-A*69:01 [1]; [19],≥ 20 µM
same,Kd,HLA-B*46:01 [5]; [19],≥ 20 µM
same,Kd,HLA-A*24:03; [19],≥ 20 µM
same,Kd,HLA-A*02:12; [19],≥ 20 µM
same,Kd,HLA-A*68:02; [19],≥ 20 µM
same,Kd,HLA-B*39:01; [19],≥ 20 µM
same,Kd,HLA-B*35:01; [19],0.021 µM
same,Kd,HLA-B*51:01 [6]; [19],≥ 20 µM
same,Kd,HLA-A*02:16; [19],≥ 20 µM
same,Kd,HLA-A*02:03; [19],≥ 20 µM
same,Kd,HLA-B*07:02; [19],≥ 20 µM
same,Kd,HLA-B*27:03; [19],≥ 20 µM
same,Kd,HLA-A*02:11; [19],≥ 20 µM
same,Kd,HLA-A*26:01 [4]; [19],≥ 20 µM
same,Kd,HLA-A*02:01; [19],≥ 20 µM
same,Kd,HLA-B*18:01; [19],≥ 20 µM
same,Kd,HLA-A*02:19; [19],≥ 20 µM
same,Kd,HLA-B*15:01; [19],0.104 µM
same,Kd,HLA-C*12:03,0.018 µM
SALGFTGVY,Kd,HLA-B*15:02; source organism: Brucella canis ATCC 23365,0.385 µM
VRFANELSF,Kd,HLA-B*27:05 [8]; source organism: Bacillus cereus H3081.97,0.0996 µM
YAMMSLFDM,Kd,HLA-B*46:01 [14],0.113 µM
same,Kd,HLA-A*03:01; [20],≥ 20 µM
same,Kd,HLA-B*35:01; [20],0.004 µM
same,Kd,HLA-B*51:01 [6]; [20],≥ 20 µM
same,Kd,HLA-B*57:01 [7]; [20],≥ 20 µM
same,Kd,HLA-A*02:03; [20],≥ 20 µM
same,Kd,HLA-B*07:02; [20],18.4 µM
same,Kd,HLA-B*27:03; [20],≥ 20 µM
same,Kd,HLA-A*26:01 [4]; [20],≥ 20 µM
same,Kd,HLA-B*18:01; [20],≥ 20 µM

# Reference: the Immune Epitope Database (IEDB)
